Patent CN115057931A

Target: human LAG-3, full length, on transfected cells (human) (UniProt P18627)
Test: cell-based or functional assay

Sequence of UniProt P18627 (P18627 23-525 limits assumed): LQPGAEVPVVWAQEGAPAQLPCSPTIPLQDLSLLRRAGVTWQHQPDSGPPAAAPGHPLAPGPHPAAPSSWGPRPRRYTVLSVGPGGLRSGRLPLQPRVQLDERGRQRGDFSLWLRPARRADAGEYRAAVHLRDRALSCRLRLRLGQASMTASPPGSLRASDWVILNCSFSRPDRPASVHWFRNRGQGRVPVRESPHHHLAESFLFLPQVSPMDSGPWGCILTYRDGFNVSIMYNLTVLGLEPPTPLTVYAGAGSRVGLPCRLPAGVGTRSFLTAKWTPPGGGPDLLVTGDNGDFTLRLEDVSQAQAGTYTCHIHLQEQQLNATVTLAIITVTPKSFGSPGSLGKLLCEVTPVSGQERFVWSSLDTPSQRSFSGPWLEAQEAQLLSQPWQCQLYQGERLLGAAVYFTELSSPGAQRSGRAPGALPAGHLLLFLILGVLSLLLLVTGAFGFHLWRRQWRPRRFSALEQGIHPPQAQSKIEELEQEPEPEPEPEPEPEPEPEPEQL

B1: BMK7 (antibody, from another filing, V domains shown)
VH: QVQLVESGGGVVQPGRSLRLSCVASGFTFSSYGMHWVRQAPGKGLEWVAIIWYDGSNKYYADSVKGRFTISRDNSKNTQYLQMNSLRAEDTAVYYCASVATSGDFDYYGMDVWGQGTTVTVSS
VL: EIVLTQSPATLSLSPGERTTLSCRASQRISTYLAWYQQKPGQAPRLLIYDASKRATGIPARFSGSGSGTGFTLTISSLEPEDFAVYYCQQRSNWPLTFGGGTKVEIK
- EC50(nM), IL-2 luciferase reporter in Jurkat cells expressing human LAG-3 with Raji cells and SEE: 2.65 nM
